The values below come from patent publication US20250042970A1 (AURINIA PHARMACEUTICALS, published 2025).

Ends that are not written are not given here. pIg22 = chimeric Ig-Fc consisting of the CH2 domain of PIg18 (IgG2 derivative) and the CH3 domain of IgG1

For assay [1], the target named is T1, FLAG-tagged cynomolgous APRIL (cynomolgus monkey, UniProt A0ACM8R0G4 110-250 (rhesus entry)).
T1 construct: FLAG-tagged, expressed with TPA signal peptide; also called cyAPRIL
T1 sequence: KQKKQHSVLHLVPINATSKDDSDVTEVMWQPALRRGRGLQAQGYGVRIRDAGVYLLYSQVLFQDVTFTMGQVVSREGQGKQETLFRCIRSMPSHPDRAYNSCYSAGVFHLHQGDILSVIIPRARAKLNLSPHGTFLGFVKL
The experiment in a line: BIACORE SPR. As for the experimental part: (§1) For human BAFF, cynomolgus monkey APRIL, and mouse APRIL measurements, mouse monoclonal antibody (IgG1) anti-FLAG M2 (Sigma Aldrich, Cat. No. F1804) was immobilized on CM3 sensor chips (GE Healthcare, Cat. No. BR-1005-41) according to the manufacturer's protocol. Antibody was diluted to 30 μg/ml in immobilization buffer (10 mM pH 5±0.20; GE Healthcare; GE Healthcare, Catalog No. BR-1003-51). […] Unreacted sites were quenched with 35 μl of 1M ethanolamine-HCl, pH 8.5 (GE Healthcare, GE Healthcare, Cat. No. BR-1000-50). This procedure typically yielded 3,000-4,000 response units (RU) of coupled antibody.
(§2) The fusion polypeptides were diluted in HBS-EP buffer and flowed over ligand-coated sensor chips. The variant BCMA-Ig and surrogate control fusion proteins were injected at three concentrations (1.5 nM, 15 nM, and 150 nM at 30 μl/min for 2 minutes per association phase) in a single binding cycle, followed by a 20 minute incubation with HBS-EP buffer containing no protein at the same flow rate. A similar protocol was followed for Z-TACI-Ig, except that the injections were at 4.5 nM, 45 nM, and 450 nM.
(§3) Sequence optimization involved generating revertants from the variant BCMA ECD-Ig molecules using standard site-directed mutagenesis methods such as by SOEing as described herein above. Single as well as multiple revertants from twelve different variant-BCMA-pIg18 were generated, cloned in the pcDNA3.1 vector (Life Technologies, as described in Example 6), expressed and purified as described in Examples 6-8. The resulting proteins were assayed for their binding characteristics using Surface Plasmon Resonance as described in Example 9.
For orientation: In SPR one partner is held on a chip, and binding of the other changes the refractive index at the surface.

Assay [2] has as its target T2, FLAG-tagged human BAFF (human, UniProt Q9Y275 134-285, limits assumed).
T2 construct: used in BIACORE (Ex. 9) and KINEXA (Ex. 11); also called huBAFF
The experiment in a line: BIACORE SPR. As for the experimental part: as §1, §2, §3

Assay [3] concerns the target T1, FLAG-tagged cynomolgous APRIL. Put plainly: BIACORE SPR; NB = No binding. Here is the method:
as §1, §2
Using available information from the structures and published literature, several residues in BAv8-10 were targeted for substitution with conserved as well as non-conserved residues and their effect on BAFF and APRIL binding was assessed by BIACORE.

For assay [4] the target is unchanged. The experiment in a line: BIACORE SPR. As for the experimental part: as §1, §2
(§4) The various fusion proteins described above were expressed and purified as described previously (Examples 2 and 3 for the CET1019AS based plasmids and Examples 7 and 8 for the pcDNA based plasmids). […] The BAv9-1-Ig Fc proteins typically exist in solution as a dimeric fusion protein. The purified fusion proteins were assayed for binding activity using BIACORE (Example 9) and KINEXA (Example 11) assays.
The source holds these as a separate data set.

Assay [5] deals with T2, FLAG-tagged human BAFF. Put plainly: BIACORE SPR. As for the experimental part: as §1, §2, §4
The source holds these as a separate data set.

B1: Variant 50234224-Ig (Fc fusion, human)
chain: AGQCSQNDYYDHLLRACIPCQLRCSSNNPPLTCQRYCNAGVTNSVKGTNAERKSSVECPPSPAPPVAGPSVFLFPPKPKDTLMISRTPEVTCVVVDVSHEDPEVQFNWYVDGVEVHNAKTKPREEQFNSTFRVVSVLTVVHQDWLNGKEYKCKVSNKGLPAPIEKTISKTKGQPREPQVYTLPPSREEMTKNQVSLTCLVKGFYPSDISVEWESNGQPENNYKTTPPMLDSDGSFFLYSKLTVDKSRWQQGNVFSCSVMHEALHNHYTQKSLSLSPGK
notes: domain: Fc; also called Parent 6
With B1, the “fold improvement over control” value in assay [1] stood at 0.4 fold; in assay [2], 4.2 fold.

B2: Variant 50238494-Ig (Fc fusion, human)
chain: AGQCSQSEYYDRLIHACVPCQLRCSSNNPPATCQRYCNAGVTNSVKGTNAERKSSVECPPSPAPPVAGPSVFLFPPKPKDTLMISRTPEVTCVVVDVSHEDPEVQFNWYVDGVEVHNAKTKPREEQFNSTFRVVSVLTVVHQDWLNGKEYKCKVSNKGLPAPIEKTISKTKGQPREPQVYTLPPSREEMTKNQVSLTCLVKGFYPSDISVEWESNGQPENNYKTTPPMLDSDGSFFLYSKLTVDKSRWQQGNVFSCSVMHEALHNHYTQKSLSLSPGK
notes: domain: Fc; also called Parent 11
Consider B2, for which the “fold improvement over control” value stood at 1.3 fold in assay [1] and 7.6 fold in assay [2].

B3: Variant 50238504R-Ig (Fc fusion, human)
chain: AGQCSQNEYYDRLIRACLPCHVRCSSNTPPATCQRYCNAGVTNSVKGTNAERKSSVECPPSPAPPVAGPSVFLFPPKPKDTLMISRTPEVTCVVVDVSHEDPEVQFNWYVDGVEVHNAKTKPREEQFNSTFRVVSVLTVVHQDWLNGKEYKCKVSNKGLPAPIEKTISKTKGQPREPQVYTLPPSREEMTKNQVSLTCLVKGFYPSDISVEWESNGQPENNYKTTPPMLDSDGSFFLYSKLTVDKSRWQQGNVFSCSVMHEALHNHYTQKSLSLSPGK
notes: domain: Fc; also called Parent 8
Consider B3, for which the “fold improvement over control” value was found to be 0.2 fold in assay [1] and 4.5 fold in assay [2].

B4: Variant 50237847-Ig (Fc fusion, human)
chain: AGQCSQNEYYDHLLRACVSCHVRCSSNNPPAICQRYCNAGVTNSVKGTNAERKSSVECPPSPAPPVAGPSVFLFPPKPKDTLMISRTPEVTCVVVDVSHEDPEVQFNWYVDGVEVHNAKTKPREEQFNSTFRVVSVLTVVHQDWLNGKEYKCKVSNKGLPAPIEKTISKTKGQPREPQVYTLPPSREEMTKNQVSLTCLVKGFYPSDISVEWESNGQPENNYKTTPPMLDSDGSFFLYSKLTVDKSRWQQGNVFSCSVMHEALHNHYTQKSLSLSPGK
notes: domain: Fc; also called Parent 3
With B4, the “fold improvement over control” value in assay [1] was 0.4 fold; in assay [2] it was 7.1 fold.

B5: Variant 50237854-Ig (Fc fusion, human)
chain: AGQCSQNEYFDHLIRACIPCDVRCSSNNPPVTCQRYCNAGVTNSVKGTNAERKSSVECPPSPAPPVAGPSVFLFPPKPKDTLMISRTPEVTCVVVDVSHEDPEVQFNWYVDGVEVHNAKTKPREEQFNSTFRVVSVLTVVHQDWLNGKEYKCKVSNKGLPAPIEKTISKTKGQPREPQVYTLPPSREEMTKNQVSLTCLVKGFYPSDISVEWESNGQPENNYKTTPPMLDSDGSFFLYSKLTVDKSRWQQGNVFSCSVMHEALHNHYTQKSLSLSPGK
notes: domain: Fc; also called Parent 4
As for B5, the results for the “fold improvement over control” value in assay [1] and in assay [2] were 0.3 fold and 5.5 fold, respectively.

B6: Variant 50237844-Ig (Fc fusion, human)
chain: AGQCSQSEYYDRLIRACIPCQLRCSSNNPPVICQRYCNAGVTNSVKGTNAERKSSVECPPSPAPPVAGPSVFLFPPKPKDTLMISRTPEVTCVVVDVSHEDPEVQFNWYVDGVEVHNAKTKPREEQFNSTFRVVSVLTVVHQDWLNGKEYKCKVSNKGLPAPIEKTISKTKGQPREPQVYTLPPSREEMTKNQVSLTCLVKGFYPSDISVEWESNGQPENNYKTTPPMLDSDGSFFLYSKLTVDKSRWQQGNVFSCSVMHEALHNHYTQKSLSLSPGK
notes: domain: Fc; also called Parent 7
B6: the “fold improvement over control” value came out at 0.5 fold in assay [1] and 5.5 fold in assay [2].

B7: Variant 50238779-Ig (Fc fusion, human)
chain: AQQCSQNEYFDRLVNSCVPCRLRCSSNNPPLTCQHYCNAGVTNSVKGTNAERKSSVECPPSPAPPVAGPSVFLFPPKPKDTLMISRTPEVTCVVVDVSHEDPEVQFNWYVDGVEVHNAKTKPREEQFNSTFRVVSVLTVVHQDWLNGKEYKCKVSNKGLPAPIEKTISKTKGQPREPQVYTLPPSREEMTKNQVSLTCLVKGFYPSDISVEWESNGQPENNYKTTPPMLDSDGSFFLYSKLTVDKSRWQQGNVFSCSVMHEALHNHYTQKSLSLSPGK
notes: domain: Fc; also called Parent 1
On to B7, for which the “fold improvement over control” value in assay [1] amounted to 0.5 fold; in assay [2], 6.4 fold.

B8: BAv45-Ig (Fc fusion)
chain: AGQCSQNEYFDHLLRACIPCQVNCSSNTPPLTCQRYCNAGVTNSVKGTNA
notes: not shown: PIg18: human IgG2 Fc, Ser at Fc positions 4, 5, 11 (native Cys)
Regarding B8, in assay [3], the binding result is given as “no binding (tested: 150 nM)”.

B9: BAv63-Ig (Fc fusion)
chain: AGQCSQNEYFDHLARACIPCQVRCSSNTPPLTCQRYCNAGVTNSVKGTNA
notes: as for B8
In the case of B9, the binding result in assay [3] is listed as “no binding (tested: 150 nM)”.

B10: BAv79-Ig (Fc fusion)
chain: AGQCSQNEYFDPLIRACIPCQARCSSNTPPLTCQRYCNAGVTNSVKGTNA
notes: as for B8
In the case of B10, the binding result in assay [3] is reported as “no binding (tested: 150 nM)”.

B11: BAv49-5L-pIg22 (Fc fusion, human)
chain: AGQCSQNEYFDPLIRACIPCQVRCSSNTPPLTCQRYCNAGVTNSVGGGGS
notes: domain: Fc; not shown: PIg22: chimeric Fc, CH2 domain of PIg18 (human IgG2 derivative) and CH3 domain of human IgG1
With B11, the Kd in assay [4] turned out to be 1.76 nM; in assay [5] it was 0.0141 nM.

B12: BAv85-5L-pIg22 (Fc fusion, human)
chain: AGQCSQNEYFDHLVRACIPCQARCSSNTPPLTCQRYCNAGVTNSVGGGGS-pIg22
modifications: not fully specified; cysteine pairing not given here
notes: as for B11
As to B12, the equilibrium dissociation constant (Kd) is 0.784 nM in assay [4] and 0.00676 nM in assay [5].

B13: BAv64-Ig (Fc fusion)
chain: AGQCSQNEYFDHLYRACIPCQVRCSSNTPPLTCQRYCNAGVTNSVKGTNA
notes: as for B8
As to B13, the binding result in assay [3] is recorded as “no binding (tested: 150 nM)”.

B14: BAv82-Ig (Fc fusion)
chain: AGQCSQNEYFDPLVRACIPCQARCSSNTPPLTCQRYCNAGVTNSVKGTNA
notes: as for B8
Consider B14, for which, in assay [3], the binding result is given as “no binding (tested: 150 nM)”.

B15: BAv78-Ig (Fc fusion)
chain: AGQCSQNEYFDHLLRACIPCQYTCSSNTPPLTCQRYCNAGVTNSVKGTNA
notes: as for B8
Turning to B15, the binding result in assay [3] is “no binding (tested: 150 nM)”.

B16: BAv81-5L-pIg22 (Fc fusion, human)
chain: AGQCSQNEYFDPLVRACIPCQVRCSSNTPPLTCQRYCNAGVTNSVGGGGS-pIg22
modifications: not fully specified; cysteine pairing not given here
notes: as for B11
B16: the Kd stood at 2.42 nM in assay [4] and 0.00675 nM in assay [5].

B17: BAv83-5L-pIg22 (Fc fusion, human)
chain: AGQCSQNEYFDPLVRACIPCQIRCSSNTPPLTCQRYCNAGVTNSVGGGGS-pIg22
modifications: not fully specified; cysteine pairing not given here
notes: as for B11
B17: the Kd in assay [4] turned out to be 0.861 nM; in assay [5] it was 0.00861 nM.

B18: BAv55-Ig (Fc fusion)
chain: AGQCSQNEYFDHLGRACIPCQVRCSSNTPPLTCQRYCNAGVTNSVKGTNA
notes: as for B8
Turning to B18, the binding result in assay [3] is listed as “no binding (tested: 150 nM)”.

Broadly, the Kd is the constant that tells how readily two partners part at equilibrium. A lower Kd goes with higher affinity.
